Series [1] concerns the target plasma-derived ATIII, P01008.
The target of another series is T1, LEAI.474.
T1 chain: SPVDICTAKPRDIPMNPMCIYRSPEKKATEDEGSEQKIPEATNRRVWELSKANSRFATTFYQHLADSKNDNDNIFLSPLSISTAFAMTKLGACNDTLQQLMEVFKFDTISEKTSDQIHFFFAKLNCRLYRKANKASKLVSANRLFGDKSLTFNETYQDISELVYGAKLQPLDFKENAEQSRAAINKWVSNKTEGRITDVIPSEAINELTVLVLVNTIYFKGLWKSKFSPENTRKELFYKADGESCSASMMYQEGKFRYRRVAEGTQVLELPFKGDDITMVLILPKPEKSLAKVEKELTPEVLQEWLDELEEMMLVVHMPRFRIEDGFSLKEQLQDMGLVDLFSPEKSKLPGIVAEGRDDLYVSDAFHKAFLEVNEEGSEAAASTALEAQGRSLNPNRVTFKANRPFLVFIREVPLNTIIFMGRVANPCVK

The next series addresses T2, LEAI.472.
T2 chain: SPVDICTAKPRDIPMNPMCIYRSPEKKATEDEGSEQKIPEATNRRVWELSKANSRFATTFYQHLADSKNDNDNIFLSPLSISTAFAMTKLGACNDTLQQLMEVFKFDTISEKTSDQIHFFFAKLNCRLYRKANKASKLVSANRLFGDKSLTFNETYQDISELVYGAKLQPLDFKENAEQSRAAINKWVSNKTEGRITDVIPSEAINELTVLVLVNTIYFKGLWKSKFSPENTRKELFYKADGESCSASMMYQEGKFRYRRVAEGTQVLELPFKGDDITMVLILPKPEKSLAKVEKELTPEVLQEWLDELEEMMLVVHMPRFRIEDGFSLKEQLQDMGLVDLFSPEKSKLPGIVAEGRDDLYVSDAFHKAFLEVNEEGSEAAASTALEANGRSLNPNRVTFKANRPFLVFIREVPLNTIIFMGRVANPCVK

A further series addresses T3, LEAI.480.
T3 chain: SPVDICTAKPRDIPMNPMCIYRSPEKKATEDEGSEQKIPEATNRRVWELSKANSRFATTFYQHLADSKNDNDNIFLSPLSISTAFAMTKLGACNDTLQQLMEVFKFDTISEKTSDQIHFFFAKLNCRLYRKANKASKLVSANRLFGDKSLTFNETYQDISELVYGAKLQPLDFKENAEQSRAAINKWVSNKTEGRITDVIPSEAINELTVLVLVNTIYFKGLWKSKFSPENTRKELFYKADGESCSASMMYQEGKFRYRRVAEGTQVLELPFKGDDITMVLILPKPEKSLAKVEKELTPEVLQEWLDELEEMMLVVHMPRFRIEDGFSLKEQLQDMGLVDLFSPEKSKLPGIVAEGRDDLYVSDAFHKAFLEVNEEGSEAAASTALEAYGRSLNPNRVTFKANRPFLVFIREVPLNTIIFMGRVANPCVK

In another series the target is T4, LEAI.482.
T4 chain: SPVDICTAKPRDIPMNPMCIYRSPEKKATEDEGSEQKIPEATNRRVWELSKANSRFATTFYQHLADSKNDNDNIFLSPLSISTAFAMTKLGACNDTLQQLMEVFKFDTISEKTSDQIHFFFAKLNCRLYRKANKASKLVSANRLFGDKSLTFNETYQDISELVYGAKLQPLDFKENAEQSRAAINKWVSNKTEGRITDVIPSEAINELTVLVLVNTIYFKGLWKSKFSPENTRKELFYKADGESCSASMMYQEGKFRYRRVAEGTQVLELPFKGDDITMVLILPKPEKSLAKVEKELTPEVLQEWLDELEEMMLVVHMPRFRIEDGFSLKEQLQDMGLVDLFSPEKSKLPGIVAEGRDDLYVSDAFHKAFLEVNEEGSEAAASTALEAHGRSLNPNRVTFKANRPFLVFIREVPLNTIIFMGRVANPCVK

Experimental findings from patent publication US20060259987 are described below.

Where only a bound is given, the exact number is not on record here.

B1: human neutrophil elastase (protein)
chain: IVGGRRARPHAWPFMVSLQLRGGHFCGATLIAPNFVMSAAHCVANVNVRAVRVVLGAHNLSRREPTRQVFAVQRIFENGYDPVNLLNDIVILQLNGSATINANVQVAQLPAQGRRLGNGVQCLAMGWGLLGRNRGIASVLQELNVTVVTSLCRRSNVCTLVRGRQAGVCFGDSGSPLVCNGLIHGIASFVRGGCASGLYPDAFAPVAQFVNWIDSIIQ
As to B1, the Substrate: halflife, min, HNE in series [1] was determined as 2.9 min; with LEAI.474 it was 38.4 min; with LEAI.472, 30.1 min; with LEAI.480, 19.9 min; with LEAI.482, 25.3 min. The “halflife HNE/hep as a percentage of plasma ATIII value” amounted to 1324% in the series with LEAI.474, 1038% with LEAI.472, 686% with LEAI.480 and 872% with LEAI.482.

B2: human neutrophil cathepsin G (protein)
chain: IIGGRESRPHSRPYMAYLQIQSPAGQSRCGGFLVREDFVLTAAHCWGSNINVTLGAHNIQRRENTQQHITARRAIRHPQYNQRTIQNDIMLLQLSRRVRRNRNVNPVALPRAQEGLRPGTLCTVAGWGRVSMRRGTDTLREVQLRVQRDRQCLRIFGSYDPRRQICVGDRRERKAAFKGDSGGPLLCNNVAHGIVSYGKSSGVPPEVFTRVSSFLPWIRTTMRS
For B2, the Substrate: halflife, min, CatG with LEAI.474 is greater than 300 min; with LEAI.472, 333 min; with LEAI.480 it was 35.8 min; in the series with LEAI.482, greater than 240 min.
